T1: human FcγRIIA (R131) (human, UniProt P12318 34-218, limits assumed)
T1 construct: Recombinant His-tagged protein
T1 sequence (looked up): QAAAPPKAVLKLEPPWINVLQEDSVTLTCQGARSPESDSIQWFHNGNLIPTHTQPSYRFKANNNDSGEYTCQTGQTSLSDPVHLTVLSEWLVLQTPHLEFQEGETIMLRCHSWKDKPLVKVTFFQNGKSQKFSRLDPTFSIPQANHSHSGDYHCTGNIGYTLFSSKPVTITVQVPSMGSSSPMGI

T2: mouse FcγRIV (mouse, UniProt A0A0B4J1G0 21-203)
T2 construct: Recombinant His-tagged protein
T2 sequence: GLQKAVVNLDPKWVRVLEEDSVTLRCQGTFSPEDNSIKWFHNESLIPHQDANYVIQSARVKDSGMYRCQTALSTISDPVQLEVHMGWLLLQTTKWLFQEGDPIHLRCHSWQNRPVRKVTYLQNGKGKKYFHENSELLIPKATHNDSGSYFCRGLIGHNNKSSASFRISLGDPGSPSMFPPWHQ

T3: mouse FcγRIII (mouse, UniProt P08508 31-215)
T3 construct: Recombinant His-tagged protein
T3 sequence (looked up): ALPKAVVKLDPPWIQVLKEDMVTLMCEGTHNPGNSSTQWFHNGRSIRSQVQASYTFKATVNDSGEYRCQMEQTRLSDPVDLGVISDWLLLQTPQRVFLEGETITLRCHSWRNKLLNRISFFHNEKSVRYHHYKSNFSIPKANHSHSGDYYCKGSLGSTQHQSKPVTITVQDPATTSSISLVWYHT

T4: mouse FcγRI (mouse, UniProt P26151 25-297)
T4 construct: Recombinant His-tagged protein
T4 sequence (looked up): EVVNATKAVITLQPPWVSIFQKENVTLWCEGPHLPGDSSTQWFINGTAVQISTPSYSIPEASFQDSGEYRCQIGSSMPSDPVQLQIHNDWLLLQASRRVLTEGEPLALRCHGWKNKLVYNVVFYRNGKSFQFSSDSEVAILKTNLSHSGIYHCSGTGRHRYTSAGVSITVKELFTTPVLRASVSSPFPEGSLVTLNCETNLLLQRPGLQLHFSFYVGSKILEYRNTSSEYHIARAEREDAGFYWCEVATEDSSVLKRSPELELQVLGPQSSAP

T5: human FcγRIIA (H131) (human, UniProt P12318 34-218, limits assumed)
T5 construct: Recombinant His-tagged protein
T5 sequence (looked up): T1 sequence (looked up) with R134H

T6: mouse FcγRIIB (mouse, UniProt P08101 30-210, limits assumed)
T6 construct: Recombinant His-tagged protein
T6 sequence (looked up): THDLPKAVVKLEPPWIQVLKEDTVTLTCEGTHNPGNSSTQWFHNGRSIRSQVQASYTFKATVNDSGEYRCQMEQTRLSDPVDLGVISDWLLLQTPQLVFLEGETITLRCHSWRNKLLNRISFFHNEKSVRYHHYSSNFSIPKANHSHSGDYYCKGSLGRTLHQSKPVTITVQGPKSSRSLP

T7: human FcγRIIB (human, UniProt P31994 43-217, limits assumed)
T7 construct: Recombinant His-tagged protein; also called FcγRIIB (human)
T7 sequence (looked up): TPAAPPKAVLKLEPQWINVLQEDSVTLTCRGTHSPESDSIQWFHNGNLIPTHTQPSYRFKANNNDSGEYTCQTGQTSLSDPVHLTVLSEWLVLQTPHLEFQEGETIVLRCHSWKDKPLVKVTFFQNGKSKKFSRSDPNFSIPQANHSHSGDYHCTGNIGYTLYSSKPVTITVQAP

B1: 3F6-hIgG1HEK (antibody)
heavy: not shown
light: DIVLTQSPDSLAVSLGERATINCRASESVEYSGASLMQWYQHKPGQPPKLLIYAASNRESGVPDRFSGSGSGTDFTLTISPVQAEDVAMYFCQQSRKVPSTFGGGTKLEIKRTVAAPSVFIFPPSDEQLKSGTASVVCLLNNFYPREAKVQWKVDNALQSGNSQESVTEQDSKDSTYSLSSTLTLSKADYEKHKVYACEVTHQGLSSPVTKSFNRGEC
modifications: Asn297 N-glycans as made by HEK-293F cells (more G1F, G2F and sialic acid than the CHO product)
notes: also called 3F6-hIgG1HEK WT; 3F6-IgG1
B2: 3F6-hIgG1HEK-afu (antibody)
heavy: not shown
light: B1 light
modifications: Asn297 N-glycans low in fucose and galactose (HEK-293F cells grown with kifunensine)
notes: See m5; also called afucosylated 3F6-hIgG1HEK
B3: 3F6-hIgG1CHO (antibody)
heavy: not shown
light: B1 light
modifications: Asn297 N-glycans as made by CHO-DG44 cells (mainly G0F, less G1F and G2F)
notes: Humanized 3F6 human IgG1 produced in CHO-DG44 cells; also called 3F6-hIgG1CHO WT; CHO-produced antibody
B4: 3F6-hIgG1HEK-KA (antibody, name in EU numbering)
heavy: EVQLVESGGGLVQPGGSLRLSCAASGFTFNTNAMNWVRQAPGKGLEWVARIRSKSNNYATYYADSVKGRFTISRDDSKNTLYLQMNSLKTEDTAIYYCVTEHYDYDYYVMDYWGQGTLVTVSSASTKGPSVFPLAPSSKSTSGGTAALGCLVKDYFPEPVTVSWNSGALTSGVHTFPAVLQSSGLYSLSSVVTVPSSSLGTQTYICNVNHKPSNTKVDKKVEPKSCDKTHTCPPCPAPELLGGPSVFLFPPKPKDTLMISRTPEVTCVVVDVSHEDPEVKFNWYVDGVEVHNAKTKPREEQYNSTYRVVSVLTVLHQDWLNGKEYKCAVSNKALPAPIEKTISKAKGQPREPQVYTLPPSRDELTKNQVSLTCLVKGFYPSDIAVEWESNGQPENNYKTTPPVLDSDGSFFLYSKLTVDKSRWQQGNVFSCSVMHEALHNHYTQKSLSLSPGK
light: B1 light
notes: also called KA variant
B5: 3F6-hIgG1HEK-G1F (antibody)
heavy: not shown
light: B1 light
modifications: Asn297 N-glycan remodelled chemoenzymatically to homogeneous G1F
notes: See m5; also called 3F6-hIgGHEK-G1F
B6: 3F6-hIgG1HEK-deGal (antibody)
heavy: not shown
light: B1 light
modifications: Asn297 N-glycans de-galactosylated with β1-4-galactosidase
notes: See m5
B7: 3F6-hIgG1CHO-Gal (antibody)
heavy: not shown
light: B1 light
modifications: Asn297 N-glycans enzymatically galactosylated (β1,4GalT)
notes: 3F6-hIgG1CHO after enzymatic galactosylation; also called 3F6-IgG1CHO-Gal
B8: 3F6-hIgG1HEK-G0F (antibody)
heavy: not shown
light: B1 light
modifications: Asn297 N-glycan remodelled chemoenzymatically to homogeneous G0F
notes: See m5; also called 3F6-hIgGHEK-G0F
B9: 3F6-hIgG1HEK-deSia (antibody)
heavy: not shown
light: B1 light
modifications: Asn297 N-glycans de-sialylated with neuraminidase
notes: See m5
B10: 3F6-hIgG1CHO-G2F (antibody)
heavy: not shown
light: B1 light
modifications: Asn297 N-glycan remodelled chemoenzymatically to homogeneous G2F
notes: Endo-S2 deglycosylation and EndoS2-D184M transfer of G2F glycan; also called 3F6-hIgGCHO-G2F
B11: 3F6-hIgG1CHO-deSia (antibody)
heavy: not shown
light: B1 light
modifications: Asn297 N-glycans de-sialylated with neuraminidase
notes: 3F6-hIgG1CHO after neuraminidase
B12: 3F6-hIgG1HEK-G2F (antibody)
heavy: not shown
light: B1 light
modifications: Asn297 N-glycan remodelled chemoenzymatically to homogeneous G2F
notes: See m5; also called 3F6-hIgGHEK-G2F

Where a chain is given by its changes, count along the chain named. Numbers in names are those of the source.

For twelve molecules, Ka results are on record in patent publication US20260250425A1 (UNIVERSITY OF CHICAGO, published 2026).

T10 sequence (P08637 17-208 limits assumed): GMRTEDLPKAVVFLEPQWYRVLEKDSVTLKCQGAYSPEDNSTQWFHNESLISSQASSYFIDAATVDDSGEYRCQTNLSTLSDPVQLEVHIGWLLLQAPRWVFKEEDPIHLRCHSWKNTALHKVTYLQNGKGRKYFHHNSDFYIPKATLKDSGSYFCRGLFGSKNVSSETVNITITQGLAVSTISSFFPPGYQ

For one experiment, the target named is T8, human C1q (human, UniProt P02745 23-245; P02746 28-253; P02747 29-245).
T8 construct: Purified human C1q (CompTech); also called hc1q; hC1q
T8 sequence (P02745 23-245 limits assumed, chain 1 of 3): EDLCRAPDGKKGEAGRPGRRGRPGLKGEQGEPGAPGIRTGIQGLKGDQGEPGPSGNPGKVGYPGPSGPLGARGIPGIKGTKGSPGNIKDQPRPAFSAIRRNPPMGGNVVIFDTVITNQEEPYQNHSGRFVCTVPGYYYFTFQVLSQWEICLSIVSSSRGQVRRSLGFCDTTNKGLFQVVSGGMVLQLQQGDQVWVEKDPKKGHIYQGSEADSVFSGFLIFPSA
T8 sequence (P02746 28-253 limits assumed, chain 2 of 3): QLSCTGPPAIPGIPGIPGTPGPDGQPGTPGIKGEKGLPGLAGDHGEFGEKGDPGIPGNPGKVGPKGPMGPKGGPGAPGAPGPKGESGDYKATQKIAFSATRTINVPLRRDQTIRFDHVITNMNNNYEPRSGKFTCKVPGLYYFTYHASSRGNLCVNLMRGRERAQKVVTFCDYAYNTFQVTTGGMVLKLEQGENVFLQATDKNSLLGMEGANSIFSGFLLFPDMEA
T8 sequence (P02747 29-245 limits assumed, chain 3 of 3): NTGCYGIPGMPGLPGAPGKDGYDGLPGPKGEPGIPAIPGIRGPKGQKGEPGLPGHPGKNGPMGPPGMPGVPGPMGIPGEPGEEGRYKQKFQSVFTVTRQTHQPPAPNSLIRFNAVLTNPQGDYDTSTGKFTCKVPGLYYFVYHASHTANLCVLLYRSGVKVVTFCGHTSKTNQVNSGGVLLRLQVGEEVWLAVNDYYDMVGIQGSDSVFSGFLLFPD
Put plainly: ELISA, human C1q-coated plate. (ELISA stands for enzyme-linked immunosorbent assay.)
Molecule B1 gave a Ka of 1.87e+07 M⁻¹.

In the case of B2, the Ka is 5.97e+06 M⁻¹.

The molecule B3 displayed a Ka of 4.91e+06 M⁻¹.

In turn, B4 displayed a Ka of 1.37e+06 M⁻¹.

The target in another experiment is T9, mouse C1q (mouse, UniProt P98086 23-245; P14106 26-253; Q02105 30-246).
T9 construct: Plates were coated with BALB/c mouse serum as the source of mouse C1q; also called mc1q
T9 sequence (P98086 23-245 limits assumed, chain 1 of 3): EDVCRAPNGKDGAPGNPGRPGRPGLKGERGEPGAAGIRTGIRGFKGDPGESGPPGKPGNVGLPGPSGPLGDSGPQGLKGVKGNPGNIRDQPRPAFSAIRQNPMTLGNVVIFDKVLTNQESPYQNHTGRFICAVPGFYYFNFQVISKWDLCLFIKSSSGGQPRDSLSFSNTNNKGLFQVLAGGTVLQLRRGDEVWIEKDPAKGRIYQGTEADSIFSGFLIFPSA
T9 sequence (P14106 26-253 limits assumed, chain 2 of 3): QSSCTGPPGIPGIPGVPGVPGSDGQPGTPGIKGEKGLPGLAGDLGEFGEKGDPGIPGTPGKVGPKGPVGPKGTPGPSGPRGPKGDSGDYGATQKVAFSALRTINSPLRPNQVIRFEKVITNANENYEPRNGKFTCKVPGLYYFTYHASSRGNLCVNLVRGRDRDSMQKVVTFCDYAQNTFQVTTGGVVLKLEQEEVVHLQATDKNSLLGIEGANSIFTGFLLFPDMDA
T9 sequence (Q02105 30-246 limits assumed, chain 3 of 3): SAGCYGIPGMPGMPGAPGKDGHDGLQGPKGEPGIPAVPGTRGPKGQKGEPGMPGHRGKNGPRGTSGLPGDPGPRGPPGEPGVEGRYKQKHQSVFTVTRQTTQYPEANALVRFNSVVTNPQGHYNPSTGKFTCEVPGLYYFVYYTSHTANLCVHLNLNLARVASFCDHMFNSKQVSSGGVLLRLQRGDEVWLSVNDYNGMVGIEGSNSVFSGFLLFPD
Put plainly: ELISA, plate coated with BALB/c mouse serum (mouse C1q).
The molecule B1 registered a Ka of 6.08e+07 M⁻¹.

On to B2, for which the Ka worked out at 2.79e+06 M⁻¹.

In turn, B3 returned a Ka of 8.87e+06 M⁻¹.

Take B4: the Ka stood at 1.34e+06 M⁻¹.

Another experiment has as its target T9, mouse C1q. The experiment is described as above. This is another data set of the same source.
With B1, the Ka came out at 6.08e+07 M⁻¹.

On to B3, for which the Ka is 8.87e+06 M⁻¹.

A further experiment addresses T8, human C1q. Kind of experiment: ELISA, human C1q-coated plate. This is another data set of the same source.
Consider B1, for which the Ka was found to be 1.87e+07 M⁻¹.

In turn, B5 yielded a Ka of 3.83e+07 M⁻¹.

B6 yielded a Ka of 4e+06 M⁻¹.

As for B7, the Ka came out at 2.17e+07 M⁻¹.

B8 had a Ka of 6.94e+06 M⁻¹.

In turn, B9 showed a Ka of 3.37e+07 M⁻¹.

In turn, B3 gave a Ka of 4.91e+06 M⁻¹.

In the case of B10, the Ka came out at 5.11e+07 M⁻¹.

Molecule B11 showed a Ka of 5.5e+06 M⁻¹.

In turn, B12 yielded a Ka of 5.5e+07 M⁻¹.

The target of a further experiment is T1, human FcγRIIA (R131). Put plainly: ELISA, His-tagged FcγR captured by anti-His antibody.
Molecule B1 came in with a Ka of 1.53e+06 M⁻¹.

B2 yielded a Ka of 1.82e+06 M⁻¹.

Take B3: the Ka was found to be 2.36e+06 M⁻¹.

B4 displayed a Ka of 1.81e+06 M⁻¹.

Another experiment addresses T10, human FcγRIIIA (F158) (human, UniProt P08637 17-208).
T10 construct: Recombinant His-tagged protein
The experiment is described as above.
B1 had a Ka of 1.97e+06 M⁻¹.

The molecule B2 yielded a Ka of 9.2e+06 M⁻¹.

B3 returned a Ka of 3.09e+06 M⁻¹.

B4 yielded a Ka of 1.51e+06 M⁻¹.

Another experiment concerns the target T2, mouse FcγRIV. The experiment is described as above.
Regarding B1, the Ka is 1.35e+08 M⁻¹.

In turn, B2 returned a Ka of 3.19e+08 M⁻¹.

Take B3: the Ka is 1.15e+08 M⁻¹.

On to B4, for which the Ka was found to be 2.66e+08 M⁻¹.

The target of another experiment is T11, human FcγRIIIA (V158) (human, UniProt P08637 17-208).
T11 construct: Recombinant His-tagged protein
T11 sequence (P08637 17-208 F176V limits assumed): as the sequence (P08637 17-208 limits assumed) above, with F160V counted along it
The description is as above.
Regarding B1, the Ka was 2.31e+07 M⁻¹.

Take B2: the Ka was 5.63e+07 M⁻¹.

B3 had a Ka of 2.75e+07 M⁻¹.

Take B4: the Ka came out at 1.4e+07 M⁻¹.

The target of a further experiment is T3, mouse FcγRIII. The experiment is described as above.
As to B1, the Ka stood at 1.69e+06 M⁻¹.

B2 yielded a Ka of 2.3e+06 M⁻¹.

As to B3, the Ka worked out at 1.49e+06 M⁻¹.

The molecule B4 had a Ka of 2.96e+06 M⁻¹.

The target in the next experiment is T4, mouse FcγRI. The description is as above.
In the case of B1, the Ka was 1.84e+08 M⁻¹.

In turn, B2 had a Ka of 9.2e+07 M⁻¹.

The molecule B3 registered a Ka of 1.77e+08 M⁻¹.

With B4, the Ka is 3.97e+08 M⁻¹.

A further experiment deals with T12, human FcγRIA (human, UniProt P12314 16-288, limits assumed).
T12 construct: Recombinant His-tagged protein
T12 sequence (P12314 16-288 limits assumed): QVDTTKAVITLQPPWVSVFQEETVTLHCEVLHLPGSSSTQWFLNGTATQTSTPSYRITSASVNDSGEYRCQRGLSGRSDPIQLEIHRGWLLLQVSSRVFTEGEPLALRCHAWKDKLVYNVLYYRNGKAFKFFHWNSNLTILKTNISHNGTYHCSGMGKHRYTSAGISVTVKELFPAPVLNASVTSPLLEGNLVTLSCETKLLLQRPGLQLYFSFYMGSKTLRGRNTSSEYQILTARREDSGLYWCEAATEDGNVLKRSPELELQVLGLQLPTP
Described as above.
The molecule B1 gave a Ka of 7.88e+08 M⁻¹.

As to B2, the Ka was determined as 5.83e+08 M⁻¹.

On to B3, for which the Ka was found to be 7.66e+08 M⁻¹.

B4 displayed a Ka of 7.86e+08 M⁻¹.

A further experiment concerns the target T5, human FcγRIIA (H131). The experiment is described as above.
As for B1, the Ka was determined as 1.13e+06 M⁻¹.

In turn, B2 returned a Ka of 1.51e+06 M⁻¹.

In turn, B3 yielded a Ka of 1.75e+06 M⁻¹.

In turn, B4 gave a Ka of 1.23e+06 M⁻¹.

The target in a further experiment is T6, mouse FcγRIIB. The experiment is described as above.
With B1, the Ka amounted to 1.61e+06 M⁻¹.

For B2, the Ka stood at 1.62e+06 M⁻¹.

As for B3, the Ka is 1.53e+06 M⁻¹.

Molecule B4 displayed a Ka of 3.35e+06 M⁻¹.

The target of the next experiment is T7, human FcγRIIB. The description is as above.
For the molecule B1, the Ka amounted to 925000 M⁻¹.

Molecule B2 returned a Ka of 179000 M⁻¹.

For the molecule B3, the Ka turned out to be 1.65e+06 M⁻¹.

Molecule B4 displayed a Ka of 1.18e+06 M⁻¹.
